Assay results as given in IntAct's records for PubMed 17588514.

B1: Replication restart protein PriB (Escherichia coli (strain K12)), P07013 (parent)
chain: MTNRLVLSGTVCRAPLRKVSPSGIPHCQFVLEHRSVQEEAGFHRQAWCQMPVIVSGHENQAITHSITVGSRITVQGFISCHKAKNGLSKMVLHAEQIELIDSGD
partner: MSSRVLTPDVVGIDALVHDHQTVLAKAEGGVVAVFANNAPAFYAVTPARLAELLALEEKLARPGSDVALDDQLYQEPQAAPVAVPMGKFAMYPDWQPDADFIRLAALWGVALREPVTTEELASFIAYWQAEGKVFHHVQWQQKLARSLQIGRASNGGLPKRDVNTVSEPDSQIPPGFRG

Variants of: B1
Conditions: with dnat_ecoli dnaT

| Variant | effect of a mutation on the interaction |
| --- | --- |
| MTNRLVLSGTVCRAPLRKVSPSGIPHCQFVLEHRSVQEEAGFHRAAWCQMPVIVSGHENQAITHSITVGSRITVQGFISCHKAKNGLSKMVLHAEQIELIDSGD [Q45A] | increasing interaction |
| MTNRLVLSGTVCRAPLRKVSPSGIPHCQFVLEHRSVQEEAGFHRQAACQMPVIVSGHENQAITHSITVGSRITVQGFISCHAAKNGLSKMVLHAEQIELIDSGD [W47A;K82A] | decreasing interaction |
